What was measured:
[1] = molecular target: SARS-CoV-2 Gamma突变株 S蛋白 (假病毒) (SARS-CoV-2 Gamma); experiment: cell-based or functional assay
[2] = molecular target: SARS-CoV-2 Delta突变株 S蛋白 (假病毒) (SARS-CoV-2 Delta); experiment: cell-based or functional assay
[3] = molecular target: SARS-CoV S1蛋白 (Sino Biological, 货号 40150-V08B1) (SARS-CoV, UniProt P59594 14-667); experiment: ELISA, S1 coated at 2 μg/mL, antibody titrated
[4] = molecular target: T1, SARS-CoV-2-Hu-1 S蛋白 (Sino Biological, 货号 40589-V08B1) (SARS-CoV-2, UniProt P0DTC2 14-1213); experiment: ELISA screen, S protein coated at 2 μg/mL, antibody at 1 μg/mL
T1 construct: extracellular domain

[5] = molecular target: T2, SARS-CoV-2 S2蛋白 (Sino Biological, 货号 40590-V08B) (SARS-CoV-2, UniProt P0DTC2 686-1213); experiment: ELISA, S2 coated at 2 μg/mL, antibody at 1 μg/mL
T2 construct: domain: S2

[6] = molecular target: T3, SARS-CoV-2 S1蛋白 (Sino Biological, 货号 40591-V08H) (SARS-CoV-2, UniProt P0DTC2 16-685); experiment: ELISA, S1 coated at 2 μg/mL, antibody at 1 μg/mL
T3 construct: domain: S1

B1: 广谱抗sarbecovirus和/或新冠突变株的抗体 SCM12-61 (antibody, V domains shown)
VH: QVQLVESGGGVVQPGRSLRLSCATSGFTFRSSAMHWVRQAPGKGLEWVAVIWFDGIKKYYTDSVKGRFTISRDNSKNTLYLQMNSLGAEDTAVYYCARDRAREFYPGPHCGDECYSSDAFDVWGQGTTVIVSS
VL: DIQMTQSPSSLSASVGDRVTITCRASQDINTYLNWYQQKSGRAPKFLIYAASSLQSGIPSRFSGSGSGTDFTLTIDSLQPEDFATYYCQQSHSIPYTFGQGTKLEIKR
In the case of B1, the “假病毒中和 IC50” value [1] is reported as 8.13 ng/mL, the “假病毒中和 IC50” value [2] is reported as 24.8 ng/mL and the binding result [3] is reported as “binds”. B1: binds [4]; no binding (tested: 1μg/mL) [5]; binds [6].
